Assay results taken from PMC10397247.
Values belong to the binder of their own block, whether it stands above or below them.

Experiments:
4H_BCR = target: T1, 4H_BCR; test: two-hybrid library CCmax;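 further: natural log of median RNA to DNA barcode read ratio; higher means stronger binding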
T1 chain: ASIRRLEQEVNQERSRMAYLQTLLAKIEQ

4H_GCN4 = test: two-hybrid library CCmax; details: mean of both orientations;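 further: natural log of median RNA to DNA barcode read ratio; higher means stronger binding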
Sequence of 4H_GCN4 (chain, as listed by the source): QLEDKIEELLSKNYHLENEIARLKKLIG

AP1-AA = target: T2, AP1-AA; test: two-hybrid library CCmax; details: mean of both orientations;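 further: natural log of median RNA to DNA barcode read ratio; higher means stronger binding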
T2 chain: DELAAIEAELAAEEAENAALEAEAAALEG

AP2-AA = target: T3, AP2-AA; test: two-hybrid library CCmax; details: mean of both orientations;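 further: natural log of median RNA to DNA barcode read ratio; higher means stronger binding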
T3 chain: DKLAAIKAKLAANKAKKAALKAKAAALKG

AP3-AA = target: T4, AP3-AA; test: two-hybrid library CCmax; details: mean of both orientations
T4 chain: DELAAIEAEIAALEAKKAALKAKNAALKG

AP4-AA = target: T5, AP4-AA; test: two-hybrid library CCmax; details: mean of both orientations
T5 chain: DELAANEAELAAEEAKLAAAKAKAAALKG

AP5-AA = target: T6, AP5-AA; test: two-hybrid library CCmax; details: mean of both orientations
T6 chain: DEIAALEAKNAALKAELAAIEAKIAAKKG

AP6-AA = target: T7, AP6-AA; test: two-hybrid library CCmax; details: mean of both orientations
T7 chain: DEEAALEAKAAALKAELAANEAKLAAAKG

AP7-AA = target: T8, AP7-AA; test: two-hybrid library CCmax; details: mean of both orientations
T8 chain: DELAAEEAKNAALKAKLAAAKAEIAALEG

AP8-AA = target: T9, AP8-AA; test: two-hybrid library CCmax; details: mean of both orientations
T9 chain: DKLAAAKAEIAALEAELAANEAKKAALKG

GCN2_T = test: two-hybrid library CCmax
O11-AA = target: T10, O11-AA; test: two-hybrid library CCmax; details: mean of both orientations
T10 chain: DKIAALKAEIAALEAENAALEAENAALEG

O13-AA = target: T11, O13-AA; test: two-hybrid library CCmax; details: mean of both orientations
T11 chain: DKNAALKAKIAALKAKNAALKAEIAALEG

O14-AA = target: T12, O14-AA; test: two-hybrid library CCmax; details: mean of both orientations
T12 chain: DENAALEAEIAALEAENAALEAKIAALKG

P1-AA = target: T13, P1-AA; test: two-hybrid library CCmax; details: mean of both orientations
T13 chain: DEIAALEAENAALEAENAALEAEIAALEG

P10-AA = target: T14, P10-AA; test: two-hybrid library CCmax; details: mean of both orientations
T14 chain: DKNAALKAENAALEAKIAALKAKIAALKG

P11-AA = target: T15, P11-AA; test: two-hybrid library CCmax; details: mean of both orientations
T15 chain: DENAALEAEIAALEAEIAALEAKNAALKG

P12-AA = target: T16, P12-AA; test: two-hybrid library CCmax; details: mean of both orientations
T16 chain: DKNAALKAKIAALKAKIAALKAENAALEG

P2-AA = target: T17, P2-AA; test: two-hybrid library CCmax; details: mean of both orientations
T17 chain: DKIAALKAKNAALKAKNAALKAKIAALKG

P3-AA = target: T18, P3-AA; test: two-hybrid library CCmax; details: mean of both orientations
T18 chain: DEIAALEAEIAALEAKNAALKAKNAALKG

P4-AA = target: T19, P4-AA; test: two-hybrid library CCmax; details: mean of both orientations
T19 chain: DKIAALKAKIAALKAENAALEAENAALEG

P7-AA = target: T20, P7-AA; test: two-hybrid library CCmax; details: mean of both orientations
T20 chain: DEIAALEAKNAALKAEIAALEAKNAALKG

P8-AA = target: T21, P8-AA; test: two-hybrid library CCmax; details: mean of both orientations
T21 chain: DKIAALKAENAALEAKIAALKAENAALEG

P9-AA = target: T22, P9-AA; test: two-hybrid library CCmax; details: mean of both orientations
T22 chain: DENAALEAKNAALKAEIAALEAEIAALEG

zCON9_A = target: T23, zCON9_A; test: two-hybrid library CCmax
T23 chain: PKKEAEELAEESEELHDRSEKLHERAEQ

zCON9_B = target: T24, zCON9_B; test: two-hybrid library CCmax; details: mean of both orientations
T24 chain: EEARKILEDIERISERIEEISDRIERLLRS

zCON9_D = target: T25, zCON9_D; test: two-hybrid library CCmax; details: mean of both orientations
T25 chain: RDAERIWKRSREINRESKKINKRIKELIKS

O16-bP = target: T26, O16-bP; test: two-hybrid library CCNG1
T26 chain: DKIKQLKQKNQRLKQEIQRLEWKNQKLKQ

O2-bP = target: T27, O2-bP; test: two-hybrid library CCNG1
T27 chain: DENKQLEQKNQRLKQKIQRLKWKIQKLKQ

O3-bP = target: T28, O3-bP; test: two-hybrid library CCNG1
T28 chain: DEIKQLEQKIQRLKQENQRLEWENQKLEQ

O4-bP = target: T29, O4-bP; test: two-hybrid library CCNG1
T29 chain: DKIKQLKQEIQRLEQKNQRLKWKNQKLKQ

O5-bP = target: T30, O5-bP; test: two-hybrid library CCNG1
T30 chain: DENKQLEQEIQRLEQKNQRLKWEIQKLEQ

O6-bP = target: T31, O6-bP; test: two-hybrid library CCNG1
T31 chain: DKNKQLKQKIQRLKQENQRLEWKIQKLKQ

O7-bP = target: T32, O7-bP; test: two-hybrid library CCNG1
T32 chain: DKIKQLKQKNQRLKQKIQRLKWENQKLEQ

O8-bP = target: T33, O8-bP; test: two-hybrid library CCNG1
T33 chain: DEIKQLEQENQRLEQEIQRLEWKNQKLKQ

O9-bP = target: T34, O9-bP; test: two-hybrid library CCNG1
T34 chain: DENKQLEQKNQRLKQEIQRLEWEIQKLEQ

O15-bP = target: T35, O15-bP; test: two-hybrid library CCNG1
T35 chain: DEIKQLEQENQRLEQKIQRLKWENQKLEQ

interaction score (4H_BCR): -1.84
interaction score (4H_GCN4): -1.7
interaction score (AP1-AA): -1.92
interaction score (AP2-AA): -2.54
interaction score (AP3-AA): -1.8
interaction score (AP4-AA): -1.51
interaction score (AP5-AA): -1.5
interaction score (AP6-AA): -1.75
interaction score (AP7-AA): -1.69
interaction score (AP8-AA): -1.28
interaction score (GCN2_T): -2.01
interaction score (O11-AA): -1.66
interaction score (O13-AA): -1.72
interaction score (O14-AA): -0.776
interaction score (P1-AA): -1.71
interaction score (P10-AA): -1.67
interaction score (P11-AA): -1.68
interaction score (P12-AA): -1.94
interaction score (P2-AA): -2.08
interaction score (P3-AA): -2.12
interaction score (P4-AA): -1.94
interaction score (P7-AA): -1.28
interaction score (P8-AA): -1.85
interaction score (P9-AA): -1.88
interaction score (zCON9_A): -2.12
interaction score (zCON9_B): -0.916
interaction score (zCON9_D): -1.5
Binder: ASIRRLEQEVNQERSRMAYLQTLLAKIEQ [4H_BCR]

interaction score (O16-bP): -0.576
interaction score (O2-bP): -1.5
interaction score (O3-bP): -1.06
interaction score (O4-bP): -1.21
interaction score (O5-bP): -0.672
interaction score (O6-bP): 0.641
interaction score (O7-bP): -1.1
interaction score (O8-bP): 1.44
interaction score (O9-bP): -1.13
Binder: DKIKQLKQKNQRLKQEIQRLEWKNQKLKQ [O16-bP]

interaction score (O15-bP): -0.0595
interaction score (O16-bP): 1.51
interaction score (O2-bP): -1.39
interaction score (O3-bP): -0.872
interaction score (O4-bP): -1.2
interaction score (O5-bP): -0.178
interaction score (O6-bP): -0.729
interaction score (O7-bP): -0.235
interaction score (O8-bP): -0.223
interaction score (O9-bP): -1.06
Binder: DEIKQLEQENQRLEQKIQRLKWENQKLEQ [O15-bP]
